Experimental data: patent US20260103536A1

Target: CD38 on cells (Raji, Daudi, REH, CD38-transfected HEK293) (human) (UniProt P28907)
Experiment: flow cytometry on Raji cells; top asymptote fixed at about the maximum response of Darzalex

Darzalex® (CD38 control) (antibody)
Adjusted* EC50: 1.27 nM
